The source of these data is the supplement of paper PMC9170038.

The data set has as its system MS2 coat protein. Put plainly: apparent KD of MS2 coat protein; designed switch direction (-1 OFF switch, 1 ON switch): -1; higher = weaker reporter binding. In short, it runs like this: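 Designed RNA switches with common flanks were transcribed on Illumina chips by stalled E. coli RNA polymerase and titrated with SNAP-549-labelled MS2 coat protein, from 0.7 or 1.5 nM doubling to 3 µM, in Tris-HCl pH 7.5 buffer with KCl, MgCl2, BSA, DTT, tRNA and Tween-20. Steps lasted 0.8–1.5 h (lowest) to 10–20 min (highest). Titrations ran without input, with 200 uM small-molecule ligand, or with an oligonucleotide input. Normalised cluster fluorescence was curve-fitted, and apparent KD is the per-design median over clusters.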

Setting [1] is: Eterna round: R95, input ligand: FMN 200 uM.
[2] abbreviates: Eterna round: R95, input ligand: microRNA oligo, concentration not stated.
Where [3] appears, read: Eterna round: R95, input ligand: none.

With “AAAGAACAUGAGGAUCACCCAUGUGAGGAUAUGCGAAAACCGCUAACAAACCAGACGGGCAGAAGGCAUAUGGU [Leistequ] (puzzle: Exclusion 1)”, the “apparent KD of MS2 coat protein” value under setting [1] came out at 0.0689 µM, the “apparent KD of MS2 coat protein” value under setting [2] was 0.0391 µM and the “apparent KD of MS2 coat protein” value under setting [3] was determined as 0.0637 µM.
As for “AAAGAAGAGAGAAAAUAACACAUGAGGAUCACCCAUGUGAGAAGAUGAGGGUGAUACAGGCUAUAUGCUCGUCUUAU (puzzle: Sensor v3, turn-off variant 1)”, the “apparent KD of MS2 coat protein” value under setting [1] was found to be 0.0629 µM, the “apparent KD of MS2 coat protein” value under setting [2] was 0.35 µM and the “apparent KD of MS2 coat protein” value under setting [3] was 0.104 µM.
As to “AAAGAGCGAGGAUAUACAUGAGGAUCACCCAUGUGAAGAUGCAUGGUCUGAACGUCUGGUAGAAGGCGUAUGAA [Rebierce] (puzzle: Exclusion 3)”, under setting [2], the “apparent KD of MS2 coat protein” value turned out to be 0.119 µM.
For “AAAGCGUGAGGAUAUGAGGCGCCGGGCCGGUUGGUGCGGAUUCAGAAGGCACAUGAGGAUCACCCAUGUCGGUA [Excls4-IV] (puzzle: Exclusion 4)”, the “apparent KD of MS2 coat protein” value under setting [2] came to 0.0372 µM.
For the sequence “AAAGGCUAAGGAUAUGCACACAUAAACAUGAGGAUCACCCAUGUGUUCCCAGCAACCAUAGCAGAAGGUAGCGAAA [Rarebeve] (puzzle: Exclusion 5)”, the “apparent KD of MS2 coat protein” value is 0.0765 µM under setting [1], 0.0701 µM under setting [2] and 0.0687 µM under setting [3].
As for “AAAGGGAAUGAGGAUAUCGUAUUGGAUAUAGUGCGAGAAGGCAUUACAUGAGGAUCACCCAUGUUUUGUUGGGA [JR_Ex6_Sub006] (Eterna round: R97, puzzle: Exclusion 6)”, the “apparent KD of MS2 coat protein” value (input ligand: FMN 200 uM) was 0.0744 µM and the “apparent KD of MS2 coat protein” value (input ligand: none) is 0.0339 µM.
Taken in the same sequence, the figures for “AAAGUGUUAGGAUAUAGGCGCAGCCAGACGCAGGAAGCGUCCUAGAAGGAACAUGAGGAUCACCCAUGUGGGCG [Eternabot (Original) Solution 41] (Eterna round: R97, puzzle: Exclusion 4)” were 1.18 µM and 0.364 µM.
“AAAUAACGAGGAUAUAGGGUCCGGAACAUGAGGAUCACCCAUGUAUUGGAAACAACGUGGUUAGAAGGCGUUGCCC [EX5 A.15] (Eterna round: R97, puzzle: Exclusion 5)”: the “apparent KD of MS2 coat protein” value (input ligand: FMN 200 uM) was determined as 0.0256 µM and the “apparent KD of MS2 coat protein” value (input ligand: none) worked out at 0.0287 µM.
In the case of “AAAUAAUAGAUAAAAUAAAACAUGAGGAUCACCCAUGUAGGCAGAUGAGGGUGAAACAAGCUUUUUGCUCGUCUUAU (puzzle: Sensor v3, turn-off variant 1)”, the “apparent KD of MS2 coat protein” value came to 0.0639 µM under setting [1], 0.477 µM under setting [2] and 0.0751 µM under setting [3].
In the case of “AAAUAAUAGAUAAAAUAAAACAUGAGGAUCACCCAUGUAGGCUGAUGAGGGUGAAACAAGCUUUUUGCUCGUCUUAU (puzzle: Sensor v3, turn-off variant 1)”, the “apparent KD of MS2 coat protein” value is, setting by setting: under setting [1], 0.154 µM; under setting [2], 0.56 µM; under setting [3], 0.197 µM.
“AAAUACAAGUAAAGAUCCUACAUGAGGAUCACCCAUGUGCUCGUCUUGUAAAGUACUAUCACGAAAGUGAUAGUACU [Mat - Sensor v3 - turn-off var 1 - Eli Mod - D87] (puzzle: Sensor v3, turn-off variant 1)”: the “apparent KD of MS2 coat protein” value by setting is: under setting [1], 0.0453 µM; under setting [2], 0.0297 µM; under setting [3], 0.0477 µM.
As to “AAAUACCGGUGAGGAUAUUUUUAAUAGAACUUUAUGAUAUACAUGAGGAUCACCCAUGUUACUUUAAAGAAGGCAUCGGAUAAA [Mat - Exclusion NG 2 - Mod of JL - D88] (Eterna round: R96, puzzle: Exclusion NG 2)”, the “apparent KD of MS2 coat protein” value (input ligand: microRNA oligo, concentration not stated) was found to be 0.0121 µM.
With “AAAUAGCAUGAGGAUAUCGAAUUAUAUAUAGUACGAGAAGGCAUGACAUGAGGAUCACCCAUGUUUUGUUGGGA [EX6 #1] (Eterna round: R97, puzzle: Exclusion 6)”, the “apparent KD of MS2 coat protein” value is, setting by setting: (input ligand: FMN 200 uM) 0.124 µM; (input ligand: none) 0.0575 µM.
Turning to “AAAUAGCUAGAGGAUAUUGGAUAGGAUUUAAUACGAGAAGGUUAGACAUGAGGAUCACCCAUGUUGUGUUGGGA [EX6 #17] (Eterna round: R97, puzzle: Exclusion 6)”, the “apparent KD of MS2 coat protein” value came to 0.0513 µM (input ligand: FMN 200 uM) and 0.0485 µM (input ligand: none).
Regarding “AAAUAGCUAGAGGAUAUUGGAUAGGAUUUACUACGAGAAGGUUAGACAUGAGGAUCACCCAUGUUGUGUUGGGA [EX6 #18] (Eterna round: R97, puzzle: Exclusion 6)”, the “apparent KD of MS2 coat protein” value turned out to be 0.0553 µM (input ligand: FMN 200 uM) and 0.0534 µM (input ligand: none).
For “AAAUAGGCAGGAUAUACAUGAGGAUCACCCAUGUGCCUAUGAAAGGUAAUUUUGAAAGGUAGAAGGGCCUAAAA [ChP 13.04.2015 #4] (puzzle: Exclusion 3)”, the “apparent KD of MS2 coat protein” value under setting [2] stood at 0.0101 µM.
In the case of “AAAUCGGUAGAGGAUAUUGUACAGGAAACGGUGCAAGAAGGUUGCACAUGAGGAUCACCCAUGUUUAAUUGCGA [EX6 #50] (Eterna round: R97, puzzle: Exclusion 6)”, the “apparent KD of MS2 coat protein” value (input ligand: FMN 200 uM) was determined as 0.0339 µM and the “apparent KD of MS2 coat protein” value (input ligand: none) turned out to be 0.0362 µM.
For “AAAUCGGUAGAGGAUAUUGUACAGGAAACGGUGCGAGAAGGCUACACAUGAGGAUCACCCAUGUUAAAUAGCGA [EX6 #55] (Eterna round: R97, puzzle: Exclusion 6)” the same measures were 0.017 µM and 0.0158 µM.
